Source: the supplement of paper PMC7877785
± gives the uncertainty stated by the source.

Assay: self-splicing fitness, log relative to wild type (ln ratio); higher = more splicing; Tetrahymena group I intron in knt gene, E. coli kanamycin selection, DiMSum; sequences stand for … in CUCUCU…GGAGGGAAAAGUUAUCAGGCAUGCACCUGGUAGCUAGUCUUUAAACCAAUAGAUUGCAUCGGUUUAAAAGGCAAGACCGUCAAAUUGCGGGAAAGGGGUCAACAGCCGUUCAGUACCAAGUCUCAGGGGAAACUUUGAGAUGGCCUUGCAAAGGGUAUGGUAAUAAGCUGACGGACAUGGUCCUAACCACGCAGCCAAGUCCUAAGUCAACAGAUCUUCUGUUGAUAUGGAUGCAGUUCACAGACUAAAUGUCGGUCGGGGAAGAUGUAUUCUUCUCAUAAGAUAUAGUCGGACCUCUCCUUAAUGGGAGCUAGCGGAUGAAGUGAUGCAACACUGGAGCCGCUGGGAACUAAUUUGUAUGCGAAAGUAUAUUGAUUAGUUUUGGAGUACUCGUGGUCG
Method in brief: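 Pooled colonies went to amplicon sequencing on an Illumina HiSeq 2500 after six replicate transformations. The plates were LB agar with 100 μg/mL carbenicillin, 50 μM IPTG and 0.2% rhamnose, with or without 25 μg/mL kanamycin, incubated overnight at 37°C or 30°C. The E. coli BL21(DE3) library had all eight P1ex-region intron nucleotides randomised, the intron placed in the knt kanamycin-resistance gene on pET-22b(+). DiMSum fitness is the error-weighted combination of replicate fold changes, kanamycin against none, normalised to wild type.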

Sequence	self-splicing fitness (ln) (30 °C)	self-splicing fitness (ln) (37 °C)
CUAAAGCAAUAUUACGUUUC	-3.78 ± 0.18	-2.69 ± 0.23
CUACAGCAAUAUUACGACGC	-3.16 ± 0.34	-2.08 ± 0.27
CUACAGCAAUAUUACGAGUA	-3.39 ± 0.18	-1.71 ± 0.12
CUACAGCAAUAUUACGCACG	-0.609 ± 0.07	0.378 ± 0.08
CUACAGCAAUAUUACGCAGC	-2.28 ± 0.24	-1.75 ± 0.36
CUACAGCAAUAUUACGCCUG	-1.43 ± 0.1	-0.209 ± 0.097
CUACAGCAAUAUUACGCUCC	-3.45 ± 0.24	-2.11 ± 0.32
CUACAGCAAUAUUACGGCGC	-3.96 ± 0.29	-1.68 ± 0.39
CUACAGCAAUAUUACGGCGG	-1.34 ± 0.084	-1.47 ± 0.094
CUACAGCAAUAUUACGGGGG	-3.39 ± 0.2	-2.26 ± 0.15
CUACAGCAAUAUUACGUAGC	-3.76 ± 0.26	-2.54 ± 0.33
CUACAGCAAUAUUACGUUUC	-3.69 ± 0.16	-2.7 ± 0.21
CUAGAGCAAUAUUACGAAGA	-3.61 ± 0.28	-1.94 ± 0.43
CUAGAGCAAUAUUACGAAGU	-2.56 ± 0.26	
CUAGAGCAAUAUUACGACCA	-2.61 ± 0.23	-1.15 ± 0.28
CUAGAGCAAUAUUACGACUG	0.0552 ± 0.11	-0.585 ± 0.14
CUAGAGCAAUAUUACGAGAU	-3.54 ± 0.17	-1.67 ± 0.15
CUAGAGCAAUAUUACGAUAA	-2.85 ± 0.21	-1.3 ± 0.23
CUAGAGCAAUAUUACGAUUA	-2.49 ± 0.23	-2.26 ± 0.23
CUAGAGCAAUAUUACGCCAG	-0.97 ± 0.1	-0.759 ± 0.21
CUAGAGCAAUAUUACGCCUC	-3.5 ± 0.2	-2.88 ± 0.34
CUAGAGCAAUAUUACGCGAG	-0.514 ± 0.11	0.0831 ± 0.13
CUAGAGCAAUAUUACGCGGU	-1.42 ± 0.092	-0.641 ± 0.13
CUAGAGCAAUAUUACGCUGG		-2.1 ± 0.33
CUAGAGCAAUAUUACGGAUG	-0.4 ± 0.095	0.311 ± 0.11
CUAGAGCAAUAUUACGGCAC		-0.856 ± 0.49

Sequence	self-splicing fitness (ln) (30 °C)	self-splicing fitness (ln) (37 °C)
CUAGAGCAAUAUUACGGCUA	-3.41 ± 0.31	-1.17 ± 0.21
CUAGAGCAAUAUUACGGUGC	-3.31 ± 0.26	-2.32 ± 0.37
CUAGAGCAAUAUUACGGUGU	-4.1 ± 0.19	-2.92 ± 0.27
CUAGAGCAAUAUUACGUAAA	-3.81 ± 0.24	-1.84 ± 0.25
CUAGAGCAAUAUUACGUCAC	-3.34 ± 0.36	-1.72 ± 0.29
CUAGAGCAAUAUUACGUCAG	-0.419 ± 0.08	-0.271 ± 0.11
CUAGAGCAAUAUUACGUGCG	-0.299 ± 0.083	-0.255 ± 0.098
CUAGAGCAAUAUUACGUGGC	-3.87 ± 0.24	-1.8 ± 0.23
CUAGAGCAAUAUUACGUUAG	-1.27 ± 0.066	-0.217 ± 0.096
CUAGAGCAAUAUUACGUUUU	-3.96 ± 0.2	-3.8 ± 0.25
CUAUAGCAAUAUUACGAGAG	-3.63 ± 0.23	-2.73 ± 0.24
CUAUAGCAAUAUUACGAUAG		-2.54 ± 0.39
CUAUAGCAAUAUUACGAUCU	-3.99 ± 0.39	-1.91 ± 0.33
CUAUAGCAAUAUUACGAUUA	-3.05 ± 0.29	-0.967 ± 0.19
CUAUAGCAAUAUUACGCAGU	-3.51 ± 0.2	-2.55 ± 0.27
CUAUAGCAAUAUUACGCCCA	-3.06 ± 0.37	-1.7 ± 0.43
CUAUAGCAAUAUUACGCCCG	-0.353 ± 0.24	-0.0929 ± 0.34
CUAUAGCAAUAUUACGCGAG	-1.85 ± 0.29	0.335 ± 0.21
CUAUAGCAAUAUUACGCUAG	-3.14 ± 0.41	-2.99 ± 0.47
CUAUAGCAAUAUUACGCUUC	-2.46 ± 0.36	-1.14 ± 0.31
CUAUAGCAAUAUUACGGUCG	0.227 ± 0.073	0.586 ± 0.11
CUAUAGCAAUAUUACGGUGC	-3.69 ± 0.28	-2.75 ± 0.29
CUAUAGCAAUAUUACGUAGU	-2.88 ± 0.16	-2.26 ± 0.23
CUAUAGCAAUAUUACGUCAC	-3.4 ± 0.28	-1.77 ± 0.31
CUAUAGCAAUAUUACGUGAC	-1.2 ± 0.15	-0.55 ± 0.16
CUAUAGCAAUAUUACGUUAG	-2.54 ± 0.16	-2.67 ± 0.19

Sequence	self-splicing fitness (ln) (30 °C)	self-splicing fitness (ln) (37 °C)
CUAUAGCAAUAUUACGUUAU	-3.27 ± 0.21	-2.38 ± 0.32
CUAUAGCAAUAUUACGUUCU	-3.41 ± 0.35	-3.02 ± 0.47
CUCAAGCAAUAUUACGAAGG	-1.11 ± 0.071	-1.42 ± 0.15
CUCAAGCAAUAUUACGACAG	-1.19 ± 0.062	-0.407 ± 0.082
CUCAAGCAAUAUUACGACUG	-3.48 ± 0.17	-1.7 ± 0.2
CUCAAGCAAUAUUACGCAAU	-3.56 ± 0.31	-1.53 ± 0.32
CUCAAGCAAUAUUACGCGUA	-3.49 ± 0.22	-1.78 ± 0.15
CUCAAGCAAUAUUACGCUGC	-3.68 ± 0.21	-2.63 ± 0.19
CUCAAGCAAUAUUACGGCCU	-4.43 ± 0.39	-2.53 ± 0.32
CUCAAGCAAUAUUACGGCGA	-2.71 ± 0.2	-1.87 ± 0.23
CUCAAGCAAUAUUACGGCUU	-3.53 ± 0.18	-2.65 ± 0.21
CUCAAGCAAUAUUACGGGCA	-2.74 ± 0.15	-2.48 ± 0.16
CUCAAGCAAUAUUACGGUAG	-2.03 ± 0.074	-0.579 ± 0.08
CUCAAGCAAUAUUACGUAGC	-4.09 ± 0.25	-2.59 ± 0.22
CUCAAGCAAUAUUACGUAUA	-3.98 ± 0.19	-2.59 ± 0.16
CUCAAGCAAUAUUACGUGAC	-2.46 ± 0.15	-0.92 ± 0.12
CUCAAGCAAUAUUACGUGAG	-3.05 ± 0.11	-3.3 ± 0.16
CUCAAGCAAUAUUACGUUUG	-2.21 ± 0.12	-2.8 ± 0.15
CUCAAGCAAUAUUACGUUUU	-3.35 ± 0.14	-2.34 ± 0.18
CUCCAGCAAUAUUACGAAAC	-3.94 ± 0.32	-2.44 ± 0.26
CUCCAGCAAUAUUACGAACA	-3.95 ± 0.43	-2.23 ± 0.21
CUCCAGCAAUAUUACGAACG	-1.6 ± 0.15	-0.22 ± 0.15
CUCCAGCAAUAUUACGACCA		-1.37 ± 0.41
CUCCAGCAAUAUUACGACUA	-2.47 ± 0.21	-2.53 ± 0.29
